Results: US11203633B2, “Polynucleotides encoding antibodies or antigen binding fragments thereof that bind pseudomonas perv” (priority 2011, dated 2021)
Substitutions are numbered along the chain they refer to. Names and notes keep the numbering of the source.

Columns and labels:
[1] = system: luminescent P. aeruginosa serogroup 05 strain (PAO1.lux); test: Opsonophagocytic killing (OPK) assay, PAO1.lux; type: cell-based, Pseudomonas aeruginosa; conditions: purified human IgG1 mAbs from phage panning; FIG. 2A
Protocol: (§1) This example describes the evaluation of prioritized human IgG1 antibodies to promote OPK of P. aeruginosa. […] OPK assays were performed as described in (DiGiandomenico, A., et al., Infect Immun 72, 7012-7021 (2004)), with modifications. Briefly, assays were performed in 96-well plates using 0.025 ml of each OPK component; P. aeruginosa strains; diluted baby rabbit serum; differentiated HL-60 cells; and monoclonal antibody. In some OPK assays, luminescent P. aeruginosa strains, which were constructed as described (Choi, K. H., et al., Nat Methods 2, 443-448 (2005)), were used. Luminescent OPK assays were performed as described above but with determination of relative luciferase units (RLUs) using a Perkin Elmer ENVISION Multilabel plate reader (Perkin Elmer).

[2] = system: P. aeruginosa strain 6077 (O11-cytotoxic); test: Corneal infection (ocular keratitis) model in mice; type: in vivo, Pseudomonas aeruginosa
[3] = system: P. aeruginosa strains (PAO1, 33356, 6294, 6077, 6206, PA103A); test: Acute pneumonia model in mice, survival; type: in vivo, Pseudomonas aeruginosa
Protocol: (§2) Antibodies or PBS were administered 24 hours before infection in each model. P. aeruginosa acute pneumonia, keratitis, and thermal injury infection models were performed as described (DiGiandomenico, A., et al., Proc Natl Acad Sci USA 104, 4624-4629 (2007)), with modifications. In the acute pneumonia model, BALB/c mice (The Jackson Laboratory) were infected with P. aeruginosa strains suspended in a 0.05 ml inoculum. In the thermal injury model, CF-1 mice (Charles River) received a 10% total body surface area burn with a metal brand heated to 92° C. for 10 seconds. Animals were infected subcutaneously with P. aeruginosa strain 6077 at the indicated dose. For organ burden experiments, acute pneumonia was induced in mice followed by harvesting of lungs, spleens, and kidneys 24 hours post-infection for determination of CFU.
The in vivo effect of administration of an anti-PcrV antibodies was studied in mice using an acute pneumonia model. Groups of mice were treated with either increasing concentrations of the V2L2 antibody, a positive control anti-PcrV antibody (mAb166), or a negative control (R347), as shown in FIG. 13 (A-B). Groups of mice were also treated with either increasing concentrations of the V2L2 antibody, the PcrV antibody PcrV-02, or a negative control (R347), as shown in FIG. 13 (C-D). Twenty-four hours after treatment, all mice were infected with 5×10^7 CFU (C) Pseudomonas aeruginosa 6294 (06) or (D) PA103A (O11).
Groups of mice were treated with either increasing concentrations of the 11A6, 3G5 or V2L7, the same concentrations of 29D2, 1F3, 1E6, V2L2, LE10, SH3, 4A8, 2H3, or 21F1, increasing concentrations of the 29D2, increasing concentrations of the V2L2, the PcrV antibody PcrV-02, or a negative control (R347), as shown in FIG. 13 (E-H). Mice were injected intraperitoneally (IP) with mAbs 24 hours prior to intranasal infection with Pseudomonas strain 6077 (1×10^6 CFU/animal).

[4] = system: P. aeruginosa strains 6206 and 6294; test: Acute pneumonia model in mice, histological examination of lung tissue; type: in vivo, Pseudomonas aeruginosa
[5] = system: luminescent P. aeruginosa serogroup 011 strain (9882-80.lux); test: OPK assay, 9882-80.lux; type: cell-based, Pseudomonas aeruginosa; conditions: strain 9882-80 (O11); FIG. 2B
Protocol: as §1
The ability of the WapR-004 and Cam-003 antibodies to mediate OPK activity against another clinically relevant 0-antigen serotype strain, 9882-80.lux, was evaluated.

[6] = system: P. aeruginosa strains (PAO1, 33356, 6294, 6077, 6206); test: Acute pneumonia model in mice, organ burden (CFU in lung, spleen, kidneys); type: in vivo, Pseudomonas aeruginosa
Protocol: as §2
Organ burden of Pseudomonas-infected mice was also studied in response to administration of V2L2. FIG. 14 (A) Mice were treated with either 1 mg/kg R347 (control), or 1 mg/kg, 0.2 mg/kg, or 0.07 mg/kg of V2L2 and then were infected intranasally with 1.2×10^6 cfu of Pseudomonas 6206. FIG. 14 (B) Mice were also treated with either 15 mg/kg R347 (negative control); 15.0 mg/kg, 5.0 mg/kg, or 1.0 mg/kg mAb166 (positive control); or 5.0 mg/kg, 1.0 mg/kg, or 0.2 mg/kg V2L2 and then were infected intranasally with 5.5×10^6 cfu of Pseudomonas 6206.
The in vivo effect of combination administration of anti-Psl and anti-PcrV binding domains was further studied in mice using the antibodies V2L2 and WapR-004 (RAD). Groups of mice were treated with R347 (2.1 mg/kg—negative control), V2L2 (0.1 mg/kg), W4-RAD (0.5 mg/kg), or V2L2/W4 combination (either 0.1, 0.5, 1.0 or 2.0 mg/kg each). Twenty-four hours post-administration of antibody, all mice were infected with an inoculum containing 5.25×10^5 cfu 6206 (O11-ExoU+). Twenty-four hours post infection, lungs, spleens, and kidneys were harvested, homogenized, and plated for colony forming unit (CFU) identification per gram of tissue.

[7] = system: P. aeruginosa strain 6077 (O11-cytotoxic); test: Corneal infection (ocular keratitis) model in mice; type: in vivo, Pseudomonas aeruginosa; conditions: C3H/HeN mice; IP, 16 hours prior to infection with 6077 1×10^6 CFU; graded at 48 h; FIG. 8H
Protocol: as §2
Cam-003 and WapR-004 efficacy was next evaluated in a P. aeruginosa corneal infection model which emphasizes the pathogens ability to attach and colonize damaged tissue. […] FIG. 8 (H): The activity of anti-Psl and anti-PcrV monoclonal antibodies V2L2 was tested in a P. aeruginosa mouse ocular keratitis model. […]

[8] = Table 5, 6206 5.25×10^5 cfu, R347 2.1 mg/kg, V2L2 0.1 mg/kg, WapR-004 0.5 mg/kg
[9] = Table 6A, strain 6294 1.33×10^7 CFU, 0.2 mg/kg (combination 0.1 mg/kg ea)
[10] = Table 6B, strain 6294 1.7×10^7 CFU, 0.2 mg/kg (combination 0.1 mg/kg ea)
[11] = Table 7, strain 6206 9.25×10^5 CFU, 0.2 mg/kg (combination 0.1 mg/kg ea)
[12] = 6294 (06) and 6206 (O11), FIG. 7E-F

B1: WapR-004: anti-Psl human IgG1 monoclonal antibody; VH SEQ ID NO:11, VL SEQ ID NO:12 (antibody, V domains shown)
VH: EVQLLESGPGLVKPSETLSLTCNVAGGSISPYYWTWIRQPPGKGLELIGYIHSSGYTDYNPSLKSRVTISGDTSKKQFSLHVSSVTAADTAVYFCARGDWDLLHALDIWGQGTLVTVSS
VL: EIVLTQSPSSLSTSVGDRVTITCRASQSIRSHLNWYQQKPGKAPKLLIYGASNLQSGVPSRFSGSGSGTDFTLTISSLQPEDFATYYCQQSYSFPLTFGGGTKLEIK
modifications: human IgG1 constant regions not cited; WapR-004 VH; WapR-004 & WarR-004RAD VL
OPK activity (killing of PAO1.lux) [1]: superior OPK activity
corneal pathology and bacterial counts vs negative control-treated animals ([2]; 6077, antibody 24 hours prior to infection, FIG. 8A-D, F-G): significantly less pathology and reduced bacterial counts in total eye homogenates
Cam-003 (45 mg/kg) vs. WapR-004 (15 mg/kg), Mann-Whitney U-test P ([2]; FIG. 8F-G): 0.0025
Cam-003 (45 mg/kg) vs. WapR-004 (45 mg/kg), Mann-Whitney U-test P ([2]; FIG. 8F-G): 0.018
WapR-004 (45 mg/kg) vs. WapR-004 (15 mg/kg), Mann-Whitney U-test P ([2]; FIG. 8F-G): 0.1331
survival ([3]; strain 6077 (O11) 8×10^5 or 6×10^5 CFU, 5 and 1 mg/kg, FIG. 6E-F): significant concentration-dependent survival
Inflammatory Infiltrate [4, 8]: PMN 2-3+
Involved Lung Surface Area [4, 8]: 50%
Overall Impression [4, 8]: Broncho interstitial pneumonia
Overall Impression ([4]; Table 6A, BALB/c mice, strain 6294 1.33×10^7 CFU, 0.2 mg/kg (combination 0.1 mg/kg ea)): Broncho interstitial pneumonia
Hemorrhage (extent) [4, 9]: Extensive
Inflammatory Infiltrate [4, 9]: PMN 3+
Involved Lung Surface Area [4, 9]: (57%), mod epithelial injury,
Overall Impression ([4]; Table 6B, BALB/c mice, strain 6294 1.7×10^7 CFU, 0.2 mg/kg (combination 0.1 mg/kg ea)): Broncho interstitial pneumonia
Bacteria [4, 10]: Neg-2+
Inflammatory Infiltrate [4, 10]: PMN 2+
Involved Lung Surface Area [4, 10]: (40%), mod epithelial injury,
Overall Impression ([4]; Table 7, BALB/c mice, strain 6206 9.25×10^5 CFU, 0.2 mg/kg (combination 0.1 mg/kg ea)): Broncho interstitial pneumonia
Bacteria [4, 11]: Neg-1+
Inflammatory Infiltrate [4, 11]: PMN 2+
Involved Lung Surface Area [4, 11]: (36%), mild epithelial injury,
OPK activity [5]: OPK activity extends to strain 9882-80 (O11)
organ burden ([6]; 6206 (O11-ExoU+) 5.25×10^5 cfu, V2L2 0.1 mg/kg, W4-RAD 0.5 mg/kg, FIG. 15): effective in lowering organ burden
viable CFU vs. R347, Mann-Whitney U-test P ([6]; 6206, kidney, 5 mg/kg, FIG. 7F): 0.0268
viable CFU vs. R347, Mann-Whitney U-test P ([6]; 6206, kidney, 15 mg/kg, FIG. 7F): 0.0208
viable CFU vs. R347, Mann-Whitney U-test P ([6]; 6206, lung, 1 mg/kg, FIG. 7F): 0.0079
viable CFU vs. R347, Mann-Whitney U-test P ([6]; 6206, lung, 5 mg/kg, FIG. 7F): 0.0006
viable CFU vs. R347, Mann-Whitney U-test P ([6]; 6206, spleen, 1 mg/kg, FIG. 7F): 0.0047
viable CFU vs. R347, Mann-Whitney U-test P ([6]; 6206, spleen, 5 mg/kg, FIG. 7F): 0.0261
viable CFU vs. R347, Mann-Whitney U-test P ([6]; 6206, spleen, 15 mg/kg, FIG. 7F): 0.0059
dissemination to the spleen and kidneys [6, 12]: effective at reducing P. aeruginosa dissemination to the spleen and kidneys
organ burden [6, 12]: reduced organ burden
viable CFU vs. R347, Mann-Whitney U-test P ([6]; 6294 ~1×10^7 CFU, lung, 1 mg/kg, FIG. 7E): 0.0002
viable CFU vs. R347, Mann-Whitney U-test P ([6]; 6294 ~1×10^7 CFU, lung, 5 mg/kg, FIG. 7E): 0.0004
viable CFU vs. R347, Mann-Whitney U-test P ([6]; 6294 ~1×10^7 CFU, lung, 15 mg/kg, FIG. 7E): 0.0011
viable CFU vs. R347, Mann-Whitney U-test P ([6]; 6294 ~1×10^7 CFU, spleen, 5 mg/kg, FIG. 7E): 0.0014

B2: WapR-004RAD: identical to WapR-004 except for an amino acid substitution G98A of the VH; VH SEQ ID NO:74, VL SEQ ID NO:12 (antibody, V domains shown)
VH: B1 VH with G98A
VL: B1 VL
modifications: WapR-004RAD VH; WapR-004 & WarR-004RAD VL
animals survived ([3]; 6206, W4-RAD 0.2 mg/kg, monitored 120 hours, FIG. 21A): Approximately 90%
effect on survival ([3]; 6294, W4-RAD 0.2 mg/kg, FIG. 24): did not affect survival
organ burden in lung, spleen, kidney ([6]; 6294 2.5×10^7 CFU, bispecifics 0.7 mg/kg, W4-RAD 0.5 mg/kg, FIG. 23A): had no effect on decreasing organ burden
corneal pathology and CFU in total eye homogenates vs R347 [7]: significantly less pathology and reduced bacterial colony forming units (CFU) in total eye homogenates
